We go through four molecules from patent US20250313631A1 (HUMMINGBIRD BIOSCIENCE PTE, published 2025).

For assay [1], the target named is T1, human CTLA4 (human, UniProt P16410 36-162). Briefly: ELISA, plate coated with the antigen.
Assay [2] has as its target T2, human B7H6 (human, UniProt Q68D85 25-262).
T2 construct: also called NCR3LG1
T2 sequence (looked up): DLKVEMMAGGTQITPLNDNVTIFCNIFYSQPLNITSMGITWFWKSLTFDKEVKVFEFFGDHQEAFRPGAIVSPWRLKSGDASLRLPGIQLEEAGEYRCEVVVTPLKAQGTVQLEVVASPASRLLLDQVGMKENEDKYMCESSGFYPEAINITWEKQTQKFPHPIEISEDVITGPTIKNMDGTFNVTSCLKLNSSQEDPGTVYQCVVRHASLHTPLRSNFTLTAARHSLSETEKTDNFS
The experiment in a line: ELISA, plate coated with the antigen. For orientation: In an ELISA, binding on a coated surface is turned into a signal by an enzyme label.

In assay [3] the target is T3, human B7H7 (human, UniProt Q9UM44 23-344).
T3 construct: also called HHLA2
T3 sequence (looked up): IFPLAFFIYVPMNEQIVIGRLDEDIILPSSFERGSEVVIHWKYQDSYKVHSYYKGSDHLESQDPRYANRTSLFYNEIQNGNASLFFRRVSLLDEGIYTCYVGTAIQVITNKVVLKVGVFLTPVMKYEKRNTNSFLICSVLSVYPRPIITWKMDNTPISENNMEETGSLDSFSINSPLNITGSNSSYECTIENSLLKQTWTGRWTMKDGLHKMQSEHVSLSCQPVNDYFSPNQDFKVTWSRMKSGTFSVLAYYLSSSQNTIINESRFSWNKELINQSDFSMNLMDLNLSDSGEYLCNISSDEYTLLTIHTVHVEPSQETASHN
Briefly: ELISA, plate coated with the antigen.

In assay [4] the target is T4, human B7H4 (human, UniProt Q7Z7D3 25-258, limits assumed).
T4 construct: also called VTCN1
T4 sequence (looked up): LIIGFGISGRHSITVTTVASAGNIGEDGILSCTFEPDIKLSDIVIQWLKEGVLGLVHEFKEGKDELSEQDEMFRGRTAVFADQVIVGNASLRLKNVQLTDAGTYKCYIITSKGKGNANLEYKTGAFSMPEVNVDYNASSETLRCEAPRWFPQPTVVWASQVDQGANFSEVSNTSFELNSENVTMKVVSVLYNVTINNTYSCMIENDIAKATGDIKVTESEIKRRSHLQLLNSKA
The experiment in a line: ELISA, plate coated with the antigen.

The target of assay [5] is T5, human PD-1 (human, UniProt Q15116 25-167). Briefly: ELISA, plate coated with the antigen.
For assay [6], the target named is T6, human B7H3 (human, UniProt Q5ZPR3 29-461, limits assumed).
T6 construct: also called CD276
T6 sequence (looked up): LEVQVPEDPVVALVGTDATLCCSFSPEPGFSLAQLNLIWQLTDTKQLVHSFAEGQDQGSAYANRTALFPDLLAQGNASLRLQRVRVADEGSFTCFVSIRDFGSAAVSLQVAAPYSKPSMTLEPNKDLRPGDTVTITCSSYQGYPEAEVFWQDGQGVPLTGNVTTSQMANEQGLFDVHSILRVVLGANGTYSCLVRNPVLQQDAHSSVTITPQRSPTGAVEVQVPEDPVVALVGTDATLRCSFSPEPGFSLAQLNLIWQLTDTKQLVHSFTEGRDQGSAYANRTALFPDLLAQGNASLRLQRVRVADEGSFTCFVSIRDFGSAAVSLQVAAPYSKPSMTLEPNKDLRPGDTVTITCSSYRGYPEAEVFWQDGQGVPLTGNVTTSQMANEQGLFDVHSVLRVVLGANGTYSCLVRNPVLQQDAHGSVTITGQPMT
The experiment in a line: ELISA, plate coated with the antigen.

Assay [7] addresses T1, human CTLA4. The experiment in a line: ELISA, plate coated with the antigen. This is another data set of the same source.
The target in assay [8] is T2, human B7H6. The experiment in a line: ELISA, plate coated with the antigen. The source holds these as a separate data set.
Assay [9] deals with T3, human B7H7. Briefly: ELISA, plate coated with the antigen. The source holds these as a separate data set.
Assay [10] has as its target T4, human B7H4. The experiment in a line: ELISA, plate coated with the antigen. This is another data set of the same source.
The target of assay [11] is T5, human PD-1. The experiment in a line: ELISA, plate coated with the antigen. This is another data set of the same source.
In assay [12] the target is T6, human B7H3. The experiment in a line: ELISA, plate coated with the antigen. The source holds these as a separate data set.
Assay [13] concerns the target T7, cynomolgus macaque VISTA expressed on cells (cynomolgus macaque, UniProt A0A7N9IB00 33-311).
T7 construct: whole, on cells; also called NHP VISTA on HEK293T cells; VISTA on NHP CD11b+ myeloid cells
The experiment in a line: flow cytometry, endogenous VISTA on CD11b+ myeloid cells of NHP PBMCs. For orientation: Flow cytometry measures light scatter and fluorescence of single cells or particles in a stream.

Assay [14] concerns the target T8, recombinant human VISTA (His-tagged) (human, UniProt Q9H7M9 33-194).
T8 construct: bought soluble protein (Sino Biological); also called hVISTA; human VISTA polypeptide
The experiment in a line: antigen-binding ELISA; HMBD-002 in F3, day 20 at 40°C.

The target in assay [15] is T9, recombinant cynomolgus macaque VISTA (His-tagged) (cynomolgus macaque, UniProt A0A7N9IB00 33-194).
T9 construct: also called cyno VISTA; cynomolgus monkey VISTA
Briefly: SPR (Biacore), NHP VISTA-HIS captured, antibody as analyte, 1:1 model; SPR (Biacore), NHP (cynomolgus) VISTA. A general note: Surface plasmon resonance follows binding to a sensor surface in real time, without labels.

Assay [16] deals with T2, human B7H6. Briefly: ELISA, plate coated with human B7H6, antibody titrated.
The target of assay [17] is T1, human CTLA4. Briefly: ELISA, plate coated with human CTLA-4, antibody titrated.
In assay [18] the target is human C1q protein (human, UniProt P02745 23-245; P02746 28-253; P02747 29-245). The experiment in a line: ELISA, plate coated with human C1q protein, detection with HRP anti-human Fc antibody.
Assay [19] concerns the target T9, recombinant cynomolgus macaque VISTA …. Briefly: BLI (Octet QK384): His-tagged cynomolgus VISTA on anti-Penta-HIS tips, V4 1433 to 179.1 nM as analyte, global fit.

Usually EC50 stands for the concentration giving half of the maximal effect. For orientation: Kd means the equilibrium constant for the complex coming apart. Usually koff stands for the rate constant with which the complex falls apart. Usually kon stands for the rate constant with which the complex forms.

Read-outs that look alike come from different tables or passages of the source.

T1 sequence (P16410 36-162 limits assumed): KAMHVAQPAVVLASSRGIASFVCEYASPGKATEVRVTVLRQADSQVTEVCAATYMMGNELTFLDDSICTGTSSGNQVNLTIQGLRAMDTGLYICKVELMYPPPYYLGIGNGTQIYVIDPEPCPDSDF
T5 sequence (Q15116 25-167 limits assumed): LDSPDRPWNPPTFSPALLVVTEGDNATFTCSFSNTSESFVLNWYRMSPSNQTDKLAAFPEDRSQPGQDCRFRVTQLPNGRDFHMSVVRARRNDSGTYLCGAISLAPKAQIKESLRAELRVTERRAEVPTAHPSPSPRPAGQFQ
human C1q protein, sequence (P02745 23-245 limits assumed, chain 1 of 3): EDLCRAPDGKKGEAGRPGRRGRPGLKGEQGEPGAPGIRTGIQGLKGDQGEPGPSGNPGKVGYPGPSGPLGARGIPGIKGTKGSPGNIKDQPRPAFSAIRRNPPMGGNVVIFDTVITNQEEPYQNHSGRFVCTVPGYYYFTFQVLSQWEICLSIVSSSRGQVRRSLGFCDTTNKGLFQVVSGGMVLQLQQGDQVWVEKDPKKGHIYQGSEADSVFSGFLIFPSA
human C1q protein, sequence (P02746 28-253 limits assumed, chain 2 of 3): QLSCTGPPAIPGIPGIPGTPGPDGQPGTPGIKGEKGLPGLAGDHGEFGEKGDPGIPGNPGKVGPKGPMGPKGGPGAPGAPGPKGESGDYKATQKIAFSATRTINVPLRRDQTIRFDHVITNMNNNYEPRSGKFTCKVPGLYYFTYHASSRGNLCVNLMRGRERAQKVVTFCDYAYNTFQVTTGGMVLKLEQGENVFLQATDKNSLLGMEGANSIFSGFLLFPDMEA
human C1q protein, sequence (P02747 29-245 limits assumed, chain 3 of 3): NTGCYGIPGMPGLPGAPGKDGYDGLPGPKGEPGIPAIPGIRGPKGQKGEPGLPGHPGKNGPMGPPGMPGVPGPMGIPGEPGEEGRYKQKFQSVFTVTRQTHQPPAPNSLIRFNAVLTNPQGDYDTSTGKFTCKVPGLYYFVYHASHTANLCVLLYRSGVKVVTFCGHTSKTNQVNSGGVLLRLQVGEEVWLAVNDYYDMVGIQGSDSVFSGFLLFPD

B1: anti-VISTA clone V4-C24 IgG1 (antibody, V domains shown)
VH: QVQLQESGPGLVKPSDTLSLTCTVSGYSITSDYTWNWIRQTPGKGLEWIGHITYSGSVSYNPSLRSRVTISRDTSKNQFSLKLSSVTAADTATYSCARALYYPWYFDVWGTGTTVTVSS
VL: EIVLTQSPATLSLSPGERATLSCRASSSVGYIHWYQQKPGQAPRPLIYTTSYRATGIPARFSGSGSGTDNTLTISSLEPEDSAVYYCQQWSSYPPITFGGGTKLEVKR
In the case of B1, the binding result in [1], in assay [2], in assay [3], in [4], in assay [5] and in assay [6] was “no binding (tested: log -7.5 M)” in each case.

B2: anti-VISTA clone V4-C26 IgG1 (antibody)
heavy: not shown
light: EIVLTQSPATLSLSPGERATLSCRASSSVGYIHWYQQKPGQAPRPIIYTTSNRATGIPARFSGSGSGTDNTLTISSLEPEDSAVYYCQQWSSYPPITFGGGTKLEVKRTVAAPSVFIFPPSDEQLKSGTASVVCLLNNFYPREAKVQWKVDNALQSGNSQESVTEQDSKDSTYSLSSTLTLSKADYEKHKVYACEVTHQGLSSPVTKSFNRGEC
Turning to B2, the binding result in [7], in assay [8], in assay [9], in [10], in assay [11] and in assay [12] was “no binding (tested: log -7.5 M)” each time.

B3: V4-C26 hIgG4 (antibody)
heavy: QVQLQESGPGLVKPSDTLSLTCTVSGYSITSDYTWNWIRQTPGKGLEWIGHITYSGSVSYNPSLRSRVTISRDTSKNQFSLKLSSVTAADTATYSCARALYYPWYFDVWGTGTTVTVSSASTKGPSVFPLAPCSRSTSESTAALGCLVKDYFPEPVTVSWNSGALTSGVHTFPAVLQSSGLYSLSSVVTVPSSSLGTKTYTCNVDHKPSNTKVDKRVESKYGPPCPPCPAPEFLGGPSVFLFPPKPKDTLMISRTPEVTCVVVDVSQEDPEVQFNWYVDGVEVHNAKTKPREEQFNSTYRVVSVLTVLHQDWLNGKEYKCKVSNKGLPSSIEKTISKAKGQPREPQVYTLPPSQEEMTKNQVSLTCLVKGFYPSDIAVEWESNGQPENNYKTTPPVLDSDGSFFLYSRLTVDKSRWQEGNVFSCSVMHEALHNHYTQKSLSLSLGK
light: B2 light
notes: human IgG4 (S228P)/kappa format; also called HMBD-002; HMBD-002-V4C26
Turning to B3, the results for the EC50 in [13] and in assay [14] were 67.6 nM and 0.0189 nM, respectively. In assay [15], the dissociation constant Kd was 0.367 nM. Moreover, the binding result is recorded as “no binding (tested: about 3e-8 M)” in assay [16], “no binding (tested: about 3e-8 M)” in assay [17] and “no binding (tested: about 2e-7 M)” in [18].

B4: anti-VISTA clone 4M2-C12 IgG1 (antibody)
heavy: not shown
light: DIVITQTPAILSTSPGEKVTMTCRASSSVGYIHWYQQKPGSSPKPWIYATSNLASGVPARFSGSGSGTSNSLTITRVEAEDAATYYCQQWSSYPPITFGGGTKLEVKRTVAAPSVFIFPPSDEQLKSGTASVVCLLNNFYPREAKVQWKVDNALQSGNSQESVTEQDSKDSTYSLSSTLTLSKADYEKHKVYACEVTHQGLSSPVTKSFNRGEC
notes: mouse variable regions on human IgG1/kappa constant regions; also called V4; V4pr
As for B4, in assay [19], the koff was below 1e-07 s⁻¹ and the kon came to 40200 M⁻¹ s⁻¹.
